Results on four molecules are retold here after US20180193477A1 (Zymeworks, published 2018).

For experiment [1], the target named is T1, Recombinant CD3epsilon/delta Fc fusion protein (Sino Biological) (UniProt P07766 23-126; P04234 22-105).
T1 construct: Bought reagent; also called recombinant CD3 fusion protein; CD3 antigen; not shown: Fc part of the bought fusion protein; not described
In words: SPR, BioRad ProteOn XPR36, 25 C, anti-Fc capture chip, Equilibrium Fit model, mean of three runs. For orientation: SPR reads the build-up and loss of mass on a sensor chip optically.

Experiment [2] has as its target T1, Recombinant CD3epsilon/delta Fc fusion …. In words: SPR (summary of Example 6).
In experiment [3] the target is T2, CD3 on human CD3+ Jurkat T cells (human, UniProt P07766 23-207).
T2 construct: whole, on cells; CD3 is a complex of several chains on the cell; also called CD3 epsilon; CD3e
In words: whole cell FACS binding on Jurkat cells, apparent affinity. For orientation: In flow cytometry, cells or beads pass a laser one at a time.

T1 sequence (P07766 23-126, stated change not applied, chain 1 of 2): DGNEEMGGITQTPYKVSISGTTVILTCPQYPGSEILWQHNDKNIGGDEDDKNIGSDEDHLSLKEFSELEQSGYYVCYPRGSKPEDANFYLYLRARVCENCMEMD
T1 sequence (P04234 22-105, stated change not applied, chain 2 of 2): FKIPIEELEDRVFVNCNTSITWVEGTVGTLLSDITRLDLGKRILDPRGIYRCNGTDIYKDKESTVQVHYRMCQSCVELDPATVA
T2 sequence (P07766 23-207): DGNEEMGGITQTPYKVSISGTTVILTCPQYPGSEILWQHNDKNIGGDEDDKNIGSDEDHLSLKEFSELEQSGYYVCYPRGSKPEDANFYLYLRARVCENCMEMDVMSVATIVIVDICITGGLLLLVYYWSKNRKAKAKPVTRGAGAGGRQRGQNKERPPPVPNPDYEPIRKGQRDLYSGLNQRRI

B1: v15193, humanized bispecific anti-CD3-CD19 antigen-binding construct (humanized HD37 Fab / humanized OKT3 scFv hVH1/hVL2) (bispecific antibody, human IgG1, kappa, L234A L235A)
heavy: not shown
chain: QVQLVQSGGGVVQPGRSLRLSCKASGYTFTRYTMHWVRQAPGKGLEWIGYINPSRGYTNYNQKVKGRFTISTDKSKNTAYLQMDSLRAEDTGVYFCARYYDDHYSLDYWGQGTLVTVSSVEGGSGGSGGSGGSGGVDDIQMTQSPSSLSASVGDRVTITCSASSSVSYMNWYQQKPGKAPKRLIYDTSKLASGVPSRFSGSGSGTDYTLTISSLQPEDAATYYCQQWSSNPFTFGQGTKLEIKAAEPKSSDKTHTCPPCPAPEAAGGPSVFLFPPKPKDTLMISRTPEVTCVVVSVSHEDPEVKFNWYVDGVEVHNAKTKPREEQYNSTYRVVSVLTVLHQDWLNGKEYKCKVSNKALPAPIEKTISKAKGQPREPQVYVLPPSRDELTKNQVSLLCLVKGFYPSDIAVEWESNGQPENNYLTWPPVLDSDGSFFLYSKLTVDKSRWQQGNVFSCSVMHEALHNHYTQKSLSLSPG
light: DIQLTQSPSSLSASVGDRATITCRASQSVDYEGDSYLNWYQQKPGKAPKLLIYDASNLVSGIPSRFSGSGSGTDFTLTISSVQPEDAATYYCQQSTEDPWTFGCGTKLEIKRTVAAPSVFIFPPSDEQLKSGTASVVCLLNNFYPREAKVQWKVDNALQSGNSQESVTEQDSKDSTYSLSSTLTLSKADYEKHKVYACEVTHQGLSSPVTKSFNRGEC
notes: also called variant 15193
On to B1, for which the Kd in experiment [1] turned out to be 370 nM.

B2: v15192, humanized bispecific anti-CD3-CD19 antigen-binding construct (humanized HD37 Fab / humanized OKT3 scFv hVH1/hVL1) (bispecific antibody, human IgG1, kappa, L234A L235A)
heavy: not shown
chain: QVQLVQSGGGVVQPGRSLRLSCKASGYTFTRYTMHWVRQAPGKGLEWIGYINPSRGYTNYNQKVKGRFTISTDKSKNTAYLQMDSLRAEDTGVYFCARYYDDHYSLDYWGQGTLVTVSSVEGGSGGSGGSGGSGGVDDIQMTQSPSSLSASVGDRVTITCSASSSVSYMNWYQQKPGKAPKRWIYDTSKLASGVPSRFSGSGSGTDYTLTISSLQPEDAATYYCQQWSSNPFTFGQGTKLEIKAAEPKSSDKTHTCPPCPAPEAAGGPSVFLFPPKPKDTLMISRTPEVTCVVVSVSHEDPEVKFNWYVDGVEVHNAKTKPREEQYNSTYRVVSVLTVLHQDWLNGKEYKCKVSNKALPAPIEKTISKAKGQPREPQVYVLPPSRDELTKNQVSLLCLVKGFYPSDIAVEWESNGQPENNYLTWPPVLDSDGSFFLYSKLTVDKSRWQQGNVFSCSVMHEALHNHYTQKSLSLSPG
light: DIQLTQSPSSLSASVGDRATITCRASQSVDYEGDSYLNWYQQKPGKAPKLLIYDASNLVSGIPSRFSGSGSGTDFTLTISSVQPEDAATYYCQQSTEDPWTFGCGTKLEIKRTVAAPSVFIFPPSDEQLKSGTASVVCLLNNFYPREAKVQWKVDNALQSGNSQESVTEQDSKDSTYSLSSTLTLSKADYEKHKVYACEVTHQGLSSPVTKSFNRGEC
notes: also called variant 15192
Regarding B2, in experiment [2], the binding result is “binds”.

B3: v15195, humanized bispecific anti-CD3-CD19 antigen-binding construct (humanized HD37 Fab / humanized OKT3 scFv hVH2/hVL2) (bispecific antibody, human IgG1, kappa, L234A L235A)
heavy: not shown
chain: QVQLVQSGGGVVQPGRSLRLSCKASGYTFTRYTMHWVRQAPGKGLEWIGYINPSRGYTNYNQKVKGRFTISTDNSKNTAYLQMDSLRAEDTGVYFCARYYDDHYSLDYWGQGTLVTVSSVEGGSGGSGGSGGSGGVDDIQMTQSPSSLSASVGDRVTITCSASSSVSYMNWYQQKPGKAPKRLIYDTSKLASGVPSRFSGSGSGTDYTLTISSLQPEDAATYYCQQWSSNPFTFGQGTKLEIKAAEPKSSDKTHTCPPCPAPEAAGGPSVFLFPPKPKDTLMISRTPEVTCVVVSVSHEDPEVKFNWYVDGVEVHNAKTKPREEQYNSTYRVVSVLTVLHQDWLNGKEYKCKVSNKALPAPIEKTISKAKGQPREPQVYVLPPSRDELTKNQVSLLCLVKGFYPSDIAVEWESNGQPENNYLTWPPVLDSDGSFFLYSKLTVDKSRWQQGNVFSCSVMHEALHNHYTQKSLSLSPG
light: DIQLTQSPSSLSASVGDRATITCRASQSVDYEGDSYLNWYQQKPGKAPKLLIYDASNLVSGIPSRFSGSGSGTDFTLTISSVQPEDAATYYCQQSTEDPWTFGCGTKLEIKRTVAAPSVFIFPPSDEQLKSGTASVVCLLNNFYPREAKVQWKVDNALQSGNSQESVTEQDSKDSTYSLSSTLTLSKADYEKHKVYACEVTHQGLSSPVTKSFNRGEC
notes: Unconjugated construct as used in SPR and whole cell FACS; also called variant v15195
Turning to B3, the Kd came out at 44.7 nM in experiment [3] and 427 nM in experiment [1].

B4: v15194, humanized bispecific anti-CD3-CD19 antigen-binding construct (humanized HD37 Fab / humanized OKT3 scFv hVH2/hVL1) (bispecific antibody, human IgG1, kappa, L234A L235A)
heavy: not shown
chain: QVQLVQSGGGVVQPGRSLRLSCKASGYTFTRYTMHWVRQAPGKGLEWIGYINPSRGYTNYNQKVKGRFTISTDNSKNTAYLQMDSLRAEDTGVYFCARYYDDHYSLDYWGQGTLVTVSSVEGGSGGSGGSGGSGGVDDIQMTQSPSSLSASVGDRVTITCSASSSVSYMNWYQQKPGKAPKRWIYDTSKLASGVPSRFSGSGSGTDYTLTISSLQPEDAATYYCQQWSSNPFTFGQGTKLEIKAAEPKSSDKTHTCPPCPAPEAAGGPSVFLFPPKPKDTLMISRTPEVTCVVVSVSHEDPEVKFNWYVDGVEVHNAKTKPREEQYNSTYRVVSVLTVLHQDWLNGKEYKCKVSNKALPAPIEKTISKAKGQPREPQVYVLPPSRDELTKNQVSLLCLVKGFYPSDIAVEWESNGQPENNYLTWPPVLDSDGSFFLYSKLTVDKSRWQQGNVFSCSVMHEALHNHYTQKSLSLSPG
light: DIQLTQSPSSLSASVGDRATITCRASQSVDYEGDSYLNWYQQKPGKAPKLLIYDASNLVSGIPSRFSGSGSGTDFTLTISSVQPEDAATYYCQQSTEDPWTFGCGTKLEIKRTVAAPSVFIFPPSDEQLKSGTASVVCLLNNFYPREAKVQWKVDNALQSGNSQESVTEQDSKDSTYSLSSTLTLSKADYEKHKVYACEVTHQGLSSPVTKSFNRGEC
notes: also called variant 15194
Consider B4, for which the Kd in experiment [1] worked out at 349 nM.
